From doi:10.1101/2019.12.17.877662 (bioRxiv, 2019)
Numbering of substitutions follows the chain as printed. Names and notes keep the numbering of the source.

B1: TtRecR (wild type RecR from Thermus thermophilus) (natural protein, UniProt Q5SHY0 1-194, looked up)
chain: MRYPESLLKLTRALSRLPGIGPKTAQRLALHLAFHKEEAEALAEALEGIKRVRACRECGNLAEGELCPICQDEDRDRSLLAVVESVADLYALERSGEFRGLYHVLGGALNPLEGIGPKELNLEGLFRRLEGVEEVVLATSMTVEGEATALYLAEELKKRGVRVTRPAYGLPVGGSLEYADEVTLGRALEGRRPV
B2: TtRecR_(G169C) (stabilized tetrameric mutant of TtRecR) (natural protein, Thermus thermophilus, UniProt Q5SHY0 1-194, looked up)
chain: B1 chain with G169C
B3: TtRecF_(D57C) (natural protein, Thermus thermophilus, UniProt Q5SLM9 1-343, looked up)
chain: MRLLLFRQRNFRNLALEAYRPPPGLSALVGANAQGKTSLLLGIHLALGGEVPLGLACLVRFGEEEAWLHAEVETELGAYRLEHRLGPGGREVLLNGKRVSLRTLWELPGSVLVSPLDLEAVLGPKEERRAYLDRLIARFSRRYAALLSAYEKALRQRNALLKAGGEGLSAWDRELARYGDEIVALRRRFLRRFAPILREVHAALAAKEAGLRLEETAGEGVLRALEASRAEERERGQTLVGPHRDDLVFLLEGRPAHRFASRGEAKTLALALRLAEHRLLGEHHGEPPLLLVDEWGEELDEARRRAVLAYAQALPQAILAGLEAPPGVPVCSVVRGVVLCPGA
B4: TtRecF_(S261C) (natural protein, Thermus thermophilus, UniProt Q5SLM9 1-343, looked up)
chain: B3 chain with C57D, S261C

Columns and labels:
TtSSB = target: T1, TtSSB (Thermus thermophilus, UniProt Q5SLP9 1-263); assay: BLI
T1 sequence: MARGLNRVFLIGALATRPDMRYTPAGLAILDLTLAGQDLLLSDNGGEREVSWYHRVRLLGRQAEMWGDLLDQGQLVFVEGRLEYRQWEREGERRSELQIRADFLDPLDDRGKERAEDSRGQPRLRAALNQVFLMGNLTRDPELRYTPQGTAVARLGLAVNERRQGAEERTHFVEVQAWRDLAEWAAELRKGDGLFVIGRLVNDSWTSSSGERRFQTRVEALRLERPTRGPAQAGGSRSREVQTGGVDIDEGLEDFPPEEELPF

TtRecR [1] = target: T2, TtRecR (Thermus thermophilus, UniProt Q5SHY0 1-194); assay: BLI
T2 sequence: B1 chain

TtRecF D57C;TtRecR = target: T3, TtRecF D57C;TtRecR (Thermus thermophilus;Thermus …, UniProt Q5SLM9;Q5SHY0 1-343;1-194, D57C|); assay: BLI
T3 sequence 1: B3 chain
T3 sequence 2: B1 chain

TtRecF S261C;TtRecR = target: T4, TtRecF S261C;TtRecR (Thermus thermophilus;Thermus …, UniProt Q5SLM9;Q5SHY0 1-343;1-194, S261C|); assay: BLI
T4 sequence 1: B3 chain with C57D, S261C
T4 sequence 2: B1 chain

TtRecR G169C [2] = target: T5, TtRecR G169C (Thermus thermophilus, UniProt Q5SHY0 1-194, G169C); assay: BLI
T5 sequence: B1 chain with G169C

TtRecF S261C = target: T6, TtRecF S261C (Thermus thermophilus, UniProt Q5SLM9 1-343, S261C); assay: BLI
T6 sequence: B3 chain with C57D, S261C

TtRecF D57C = target: T7, TtRecF D57C (Thermus thermophilus, UniProt Q5SLM9 1-343, D57C); assay: BLI
T7 sequence: B3 chain

TtRecF;TtRecR = target: T8, TtRecF;TtRecR (Thermus thermophilus;Thermus …, UniProt Q5SLM9;Q5SHY0 1-343;1-194, |); assay: EMSA
T8 sequence 1: B3 chain with C57D
T8 sequence 2: B1 chain

TtRecR G169C [3] = target: T5, TtRecR G169C; assay: EMSA
TtRecR [4] = target: T2, TtRecR; assay: EMSA
TtRecF = target: T9, TtRecF (Thermus thermophilus, UniProt Q5SLM9 1-343); assay: EMSA
T9 sequence: B3 chain with C57D

TtRecF;TtRecR G169C = target: T10, TtRecF;TtRecR G169C (Thermus thermophilus;Thermus …, UniProt Q5SLM9;Q5SHY0 1-343;1-194, |G169C); assay: EMSA
T10 sequence 1: B3 chain with C57D
T10 sequence 2: B1 chain with G169C

crystal structure = target: the molecule itself; assay: crystal structure
[5] = target: T11, TtRecF (wild type RecF from Thermus thermophilus) (Thermus thermophilus, UniProt Q5SLM9 1-343); assay: native gel or EMSA
T11 sequence (looked up): B3 chain with C57D

TtRecF_(D57C) = target: B3; assay: BLI
TtRecF_(S261C) = target: B4; assay: BLI
cross-linking = target: the molecule itself; assay: cross-linking

For GCAATGAAGTACGCTTGCCAGCTGCAGTCATGATTG (ssDNA) [biotinylated 36-mer ssDNA], the Kd (TtSSB) was ~0.0072 µM, the binding result (TtRecR [1]) was “no binding” and the binding result (TtRecF D57C;TtRecR) was “binds”. The binding result (TtRecF S261C;TtRecR) was “binds”, the binding result (TtRecR G169C [2]) was “binds” and the Kd (TtRecF S261C) was 19.7 µM. For the same binder, the Kd (TtRecF D57C) was 146 µM.

TTTTTTTTTTTTTTTTTTTTTTTTTTTTTTTTTTT (ssDNA) [FAM-dT35]: binds (TtRecF;TtRecR); no binding (TtRecR G169C [3]); no binding (TtRecR [4]). TTTTTTTTTTTTTTTTTTTTTTTTTTTTTTTTTTT (ssDNA) [FAM-dT35]: no binding (TtRecF); no binding (TtRecF;TtRecR G169C).

In the case of B1, the “stoichiometry N” value (crystal structure) is reported as 4, the binding result [5] is reported as “binds” and the binding result (TtRecF_(D57C)) is reported as “binds”. B1: binds (TtRecF_(S261C)).

For B2, the “stoichiometry N” value (cross-linking) was 4 and the binding result [5] was “binds”.

In the case of B3, the “stoichiometry N” value (cross-linking) is reported as 2.

B4 was tested, and the “stoichiometry N” value (cross-linking) was 2.
